Experimental findings from patent publication US20200182883A1 (UNIVERSITY OF MARYLAND BALTIMORE, published 2020) are described below.

For test [1], the target named is T1, HIV-1 IIIB p24 recombinant protein (HIV-1 IIIB).
T1 construct: domain: p24
As to the kind of experiment: SPR, mAb immobilized on a Protein A chip, 0-200 nM p24, room temperature. For orientation: SPR reads the build-up and loss of mass on a sensor chip optically.
Description: Surface Plasmon Resonance (SPR) analysis of anti-p24 mAbs. […] Surface Plasmon Resonance (SPR) analysis of each mAb binding to p24. Sensorgrams were obtained at room temperature for each mAb immobilized on a Protein A chip with 0-200 nM concentrations of p24 passed over the chip.

The target of test [2] is T2, YU2 gp120 core, from which V1, V2, and V3 have been deleted (HIV-1 YU2, UniProt P35961 82-479).
T2 construct: domain: gp120 core; also called YU2 core; YU2-core
As to the kind of experiment: ELISA, graded. For orientation: In an ELISA, binding on a coated surface is turned into a signal by an enzyme label.

Test [3] deals with T2, YU2 gp120 core, from which V1, V2, and …. As to the kind of experiment: ELISA, background-subtracted OD, mAb titrated.

B1: N60P53 (antibody, V domains shown)
VH: QVQLQESGPGLVKPSQTLSLTCTVSGGSINSGGYFWTWIRQEPGKGLEWIGHVHSSGTTSYNPSLKSRLTISLDSSKNQFSLNLTSVTAADTAVYYCASQGRLGIGDYWGQGALVVVSS
VL: DIQMTQSPSSLSASVGDRVTITCRASQGVSHLVNWYQQKPGKAPKPLIYTVSSLHSGVPSRISGSGSETEFTLTISSLQPEDFATYYCQQTYSSPRTFGQGTRVDLK
notes: Anti-p24 mAb; they may be variable regions only; captured on Protein A chip in SPR; also called N6053
Usually Kd stands for the constant that tells how readily two partners part at equilibrium. Usually koff stands for the rate constant with which the complex falls apart. The kon is the second-order rate constant of association. For B1, in test [1], the dissociation constant Kd stood at 0.0399 nM, the koff is 3.81e-05 s⁻¹ and the association rate constant (kon) is 954000 M⁻¹ s⁻¹.

B2: N60P25.1 (antibody, V domains shown)
VH: QIELVQSGTEVKRPGASVRISCASSGYRFTNYFIHWVRQAPGRGLEWMGWMNPLHGGVNYSGRFQGRVTMTRDIYTETSFMVLSGLTSDDTAIYFCTRGRDGYDDGFHPWGQGTLVTVSA
VL: YVQSQSPSTLYASVGDKITITCRSSQSGWKAWYQQKPGKAPKLLIYKSSILETGVPSRFSGSDSGTEFTLTISSLQPDDFATYYCQHFETFGQGTRVQVR
notes: Kappa light chain; also called N6025.1
With B2, the binding result in test [2] is “no binding”.

B3: N60P23 (antibody, V domains shown)
VH: HVQLVQSGTEVKRPGASVRISCASSGYTFSNYFIHWVRQAPGRGLEWMGWMNPLRGAVNYSGKFQGRVTMTRDIYTETSFMVLSGLRSDDTAIYFCARGRDGYEYGFNPWGQGTLVTVSS
VL: CYVQTQSPSTLYASVGDRVTITCRSSQSGWKAWYQQKPGKAPKLLIYKSSTLESGVPSRFSGSDSGTEFNLTITSLQPDDFATYFCQHFETFGQGTRVEVR
notes: they may be variable regions only; Kappa light chain
As for B3, the binding result in test [3] is “no binding (tested: 0.8 ug/ml)”.

B4: N60P2.1 (antibody, V domains shown)
VH: RAQLVQSGPEVKKPGASVRISCAASGYTFVDSFIHWLRQAPGQGLEWIGWINPLRGGVNYSGRFQGRVAMTRNTFTETVYMDINGLTPDDTATYFCVRAPDSYDRGYDAWGQGTRVIVTS
VL: YIQVTQSPSTLSASIGDTVTITCRASEGWLAWYQQKPGKAPKLIIYKTSTLERGVPSRFSGSVSGADFTLTISGLQSDDFATYYCQKFEFFGQGTVVDMK
notes: they may be variable regions only
Take B4: the binding result in test [2] was “no binding”.
